Measurements reported in patent US20240247076A1 (SUZHOU ALPHAMAB, published 2024).

T1: mApple-chis (mouse, UniProt Q91Y47 19-389)
T1 construct: range 1-389; also called mapple-chis-biotin
T1 sequence (looked up): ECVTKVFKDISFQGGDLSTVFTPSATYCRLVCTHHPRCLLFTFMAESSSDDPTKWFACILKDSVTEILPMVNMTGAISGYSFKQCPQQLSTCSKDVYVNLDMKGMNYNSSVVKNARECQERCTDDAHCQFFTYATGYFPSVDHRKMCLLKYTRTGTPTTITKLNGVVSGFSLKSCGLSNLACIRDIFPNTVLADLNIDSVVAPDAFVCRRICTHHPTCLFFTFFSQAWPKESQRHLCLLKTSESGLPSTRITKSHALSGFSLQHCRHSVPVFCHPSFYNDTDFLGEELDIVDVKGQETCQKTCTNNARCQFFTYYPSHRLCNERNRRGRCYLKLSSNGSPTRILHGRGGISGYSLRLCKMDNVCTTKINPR

B1: iFE35 (VHH, not shown: small tags and cut ends)
VHH: QVQLQESGGGSVQAGGSLGLSCTASGFTFDDSDMGWYRQAPGNECELVSTISSDGRGFYADSVKGRFTISQDRAKNTVYLHMNSLKPEDTAVYYCAAGWYGSFCSGLGQGTQVTVSS
notes: also called antibody strain 35
B2: iFE168 (VHH, not shown: small tags and cut ends)
VHH: QVQLQESGGGSVQAGGSLRLSCAASGYTFSNNFVGWFRQAPGKKREGVATIYTLGSSTYYADSVKGRFTISQDNAKNTLYLEMNSLKPEDTAMYYCAAARGWVSPLDPARFVYWGQGTQVTVSS
notes: also called antibody strain 168
B3: iFE163 (VHH, not shown: small tags and cut ends)
VHH: QVQLQESGGDSVQAGGSLRLSCIASGFTFDDSDMGWYRQAPGHQCEFVSHITNDGTTYYADSVKGRFTISRDNAKNTVYLQMNSLKPEDAAVYYCAADAWGGGRSTCVNPIGYWGQGTQVTVSS
B4: iFE13 (VHH, not shown: small tags and cut ends)
VHH: QVQLQESGGGSVQAGGSLRLSCAGDGYTYSMGAMAWFRQAPGKEREGVALIATSSGFISYTDSVKGRFTISQDDAKIYLQMNSLKPEDTAMYYCAAGTQFSWSPGSYNYWGQGTQVTVSS
notes: also called antibody strain 13
B5: iFE148 (VHH, not shown: small tags and cut ends)
VHH: QVQLQESGGGSVQAGGSLRLSCVASGYTFNNNFVGWFRQAPGKEREGVAAIYSLGGSTYYADSVKGRFTISQDNAKNTVYLQMDSLKPEDTATYYCAGAITWVPPLSHRRYTYWGQGTQVTVSS
B6: iFE96 (VHH, not shown: small tags and cut ends)
VHH: QVQLQESGGGSVQAGGSLRLSCAASGFTASSNFMGWFRQAPGKEREGVAAIYTGGASTFYADSVKGRFTISQDNAKNTVYLEMDTLKPEDTAMYYCAAAPRWIAPLRADRYEYWGQGTQVTVSS
notes: also called antibody strain 96
B7: iFE5 (VHH, not shown: small tags and cut ends)
VHH: QVQLQESGGGSVQAGGSLRLSCAASGYTYSFNSMGWFRQAPGKEREGVAVIYLGSTHYADSVKGRFTISQDNAKNMVYLQMNSLKPEDTAMYYCAADLLEYDGTWFGSTYNYWGQGTQVTVSS
notes: also called antibody strain 5
B8: iFE166 (VHH, not shown: small tags and cut ends)
VHH: QVQLQESGGGSVQAGGSLRLSCVASGFTGCRNIMSWYRQAPGKDREFVSAIDSDGVDYADSVKGRFSISQHNDKKTMYLQMTSLKLEDTAMYYCRRVDFGTTSQCRGNYWGQGTQVTVSS
B9: iFE50 (VHH, not shown: small tags and cut ends)
VHH: QVQLQESGGGLVQPGGSLRLSCAASGFTFSLYDMSWVRQAPGQGLEWVSAITNPGGSTYYADSVKDRFTISRDNAKNTLYLQMNSLKTEDTAVYYCAIGRRATFQREKDWGQGTQVTVSS
notes: also called antibody strain 50
B10: iFE49 (VHH, not shown: small tags and cut ends)
VHH: QVQLQESGGDSVQAGGSLRLSCAASGLISTGLISTRHCMSWFRQAPGKEREEVAVIGSDGSTRYGDFAKGRFTISKDTAKNTLYLQMNSLEPEDTAMYYCAAGPLVSTASRRRTRCPEGPRENIYWGQGTQVTVSS
notes: also called antibody strain 49
B11: iFE56 (VHH, not shown: small tags and cut ends)
VHH: QVQLQESGGGSVQAGGSLRLSCAASGHTYSSNYCMAWFRQAPGKEREGVAAIYSDGSTSYADSVKGRFTISKDNAKNTLYLQIDSLKPEDTSLYYCAATAYEGSWTGKQPLCLLYEYTYWGQGTQVTVSS
notes: also called antibody strain 56
B12: iFE97 (VHH, not shown: small tags and cut ends)
VHH: QVQLQESGGGSVQAGGSLRLSCTASEFTFDDSDMAWYRQAPGNECELVSTITSDGGTYYADSVKGRFTISQDNAKNTMYLQMNNLKPEDTAVYYCAADQWGSAEGDCTSSYPGGYWGQGTQVTVSS
notes: also called antibody strain 97
B13: iFE43 (VHH, not shown: small tags and cut ends)
VHH: QVQLQESGGGSVQAGGSLRLSCAASGLRFSIYDWSWVRQAPGKGLEWVSAINSGGGVTSYADSVKGRVTISRDNAKNTLYLQMHSLKTEDTAVYYCATGDGGSWYRDGDWGQGTQVTVSS
notes: also called antibody strain 43

biological target: T2, recombinant human factor XI (hFXI) (human, UniProt P03951 19-625); experiment: ELISA, clone lysate on coated antigen
T2 construct: also called hFXI-Chis; hFXI-CHis
Procedure: (§1) The FXI-binding positive phages obtained after panning were infected with blank E. coli and plated. Then 190 single colonies were randomly selected, named iFE 1 to iFE 190, and separately inoculated into 2TY-AG, and when the colonies were cultured to OD600 of about 0.8, IPTG was added to a final concentration of about 1 mM; after the expression was induced overnight at 25° C., single-domain antibodies were expressed in E. coli periplasm; the next day, the bacteria were harvested and lysed, and the supernatant was collected and used for ELISA assay. The plates were coated with hFXI, hApple and mApple, respectively, and then reacted overnight at 4° C., and the obtained sample lysis supernatant (the control group was E. coli lysis supernatant as a blank control) was added and reacted at room temperature for 2 hours. After washing, secondary antibody Goat anti-HA tag HRP (purchased from abcam) was added and reacted at room temperature for 2 hours. After washing, TMB chromogenic solution was added, absorbance values at 450 nm and 650 nm wavelengths were read, and a final absorbance value was obtained by subtracting the absorbance value at 650 nm wavelength from the absorbance value at 450 nm wavelength. When the OD value of the sample wells was more than 2 times larger than that of the control wells, the sample wells were determined as positive cloning wells.

Row | OD | Binder
1 | 1.8 OD | B1
2 | 0.619 OD | B2
3 | 1.46 OD | B3
4 | 1.94 OD | B4
5 | 0.714 OD | B5
6 | 0.407 OD | B6
7 | 1.33 OD | B7
8 | 1.24 OD | B8
9 | 0.439 OD | B9
10 | 0.998 OD | B10
11 | 1.42 OD | B11
12 | 1.3 OD | B12
13 | 1.06 OD | B13

biological target: T3, hApple-chis (human, UniProt P03951 19-387); experiment: ELISA, clone lysate on coated antigen
T3 construct: range 1-387; also called happle-chis-biotin
Procedure: as §1

Row | OD | Binder
14 | 1.61 OD | B1
15 | 0.974 OD | B2
16 | 1.09 OD | B3
17 | 1.98 OD | B4
18 | 0.998 OD | B5
19 | 0.58 OD | B6
20 | 1.62 OD | B7
21 | 1.69 OD | B8
22 | 1.05 OD | B9
23 | 1.26 OD | B10
24 | 1.46 OD | B11
25 | 0.994 OD | B12
26 | 1.38 OD | B13

biological target: T1, mApple-chis; experiment: ELISA, clone lysate on coated antigen
Procedure: as §1

Row | OD | Binder
27 | 0.043 OD | B1
28 | 0.843 OD | B2
29 | 1.07 OD | B3
30 | 0.056 OD | B4
31 | 0.681 OD | B5
32 | 0.334 OD | B6
33 | 0.069 OD | B7
34 | 1.83 OD | B8
35 | 0.042 OD | B9
36 | 0.061 OD | B10
37 | 0.04 OD | B11
38 | 0.774 OD | B12
39 | 0.04 OD | B13

biological target: T3, hApple-chis; experiment: ELISA, purified tagged VHH on coated antigen
Procedure: (§2) Plates were coated with hApple and mApple proteins, respectively, at 0.5 μg/well and reacted overnight at 4° C. The plates were added with a gradient dilution series of the candidate single-domain antibodies with His and HA tags obtained in 1.4. and reacted at room temperature for 2 hours. After washing, a chicken anti-HA-tag secondary antibody (streptavidin-HRP, abcam) labeled with horseradish peroxidase was added and reacted at room temperature for 2 hours. After washing, a chromogenic solution was added, absorbance values at 450 nm and 650 nm wavelengths were read, and a final absorbance value was obtained by subtracting the absorbance value at 650 nm wavelength from the absorbance value at 450 nm wavelength. Data processing and mapping analysis were carried out by using software SotfMax Pro v5.4, and through four-parameter filling, binding curves of the candidate single-domain antibodies against FXI to hApple and mApple and EC₅₀ values were obtained so as to reflect the affinities of the candidate antibodies for hApple and mApple.

Row | EC50 | OD at 20 µg/mL | Binder
40 | 0.0241 µg/mL |  | B1
41 | 0.0205 µg/mL |  | B2
42 | 0.0162 µg/mL |  | B3
43 | 0.0195 µg/mL |  | B4
44 | 0.263 µg/mL |  | B5
45 | 1.25 µg/mL | 1.3 OD | B6
46 | 0.0329 µg/mL |  | B7
47 | 0.0498 µg/mL |  | B8
48 | 1.16 µg/mL |  | B10
49 | 0.323 µg/mL |  | B11
50 | 0.735 µg/mL |  | B12

biological target: T1, mApple-chis; experiment: ELISA, purified tagged VHH on coated antigen
Procedure: as §2

Row | EC50 | OD at 20 µg/mL | Binder
51 | 0.0584 µg/mL |  | B2
52 | 0.0129 µg/mL |  | B3
53 | 0.255 µg/mL |  | B5
54 |  | 0.8 OD | B6
55 | 0.0468 µg/mL |  | B8
56 | 1.23 µg/mL | 1.4 OD | B12
